{"source": "paper PMC3207290", "about": "(The Journal of Cell Biology, 2011)", "binders": {"B1": {"name": "bovine GRK5-Flag (enzyme)", "chain": "MELENIVANTVLLKAREGGGGKRKGKSKKWKEILKFPHINQCEDLRRTIDRDYCSLCDKQPVGRLLFRQFCETRPGLESYIQFLDSVAEYEVTPDEKLGEKGKEIMTKYLTPKSPVFITQVGRDLVSQTEEKLLQKPCKELFSACVQSVHDYLRGEPFHEYLDSMYFDRFLQWKWLERQPVTKNTFRQYRVLGKGGFGEVCACQVRATGKMYACKRLEKKRIKKRKGESMALNEKQILEKVNSRFVVNLAYAYETKDALCLVLTIMNGGDLKFHIYNMGNPGFEEERALFYAAEILCGLEDLHHENIVYRDLKPENILLDDYGHIRISDLGLAVKIPEGDLIRGRVGTVGYMAPEVLNNQRYGLSPDYWGLGCLIYEMIEGQSPFRGRKEKVKREEVDRRVLETEEVYSHKFSEEAKSICKMLLTKDAKQRLGCQEEGAAEVKRHPFFRNMNFKRLEAGMLDPPFVPDPRAVYCKDVLDIEQFSTVKGVNLDHTDDDFYSKFSTGSVPIPWQSEMIETECFKELNVFGPHGTLSPDLNRSHPPEPPKKGLLQRLFKRQHQNNSKSSPNSKTSFNHHINSNHVSSNSTGSS"}}, "target": "F-actin (polymerized rabbit muscle G-actin) (rabbit, UniProt P68135 1-377)", "experiment": "co-sedimentation"}
{"binder": "B1", "values": [{"measurement": "Kd", "value": "809 ± 245", "unit": "nM"}]}
